Measurements published in patent US7629135B2, “Toll-like receptor agonists and antagonists and methods of use thereof” (The Board of Trustees of the University of Illinois, priority 2006, dated 2009).

How the values were obtained:
[1] = test system: TLR2-HeLa cells; assay: IL-8 secretion in TLR2-HeLa cells (ELISA); assay type: cell-based, human; conditions: SAA 1 μM, up to 24 hours
Protocol: FIG. 7 is a series of studies showing SAA-induced response in transfected HeLa cells. […] Pam3CSK4 is a known agonist for TLR2 and was used as a control. […] FIG. 7B is time course of SAA-induced IL-8 secretion in TLR2-HeLa cells compared to mock-transfected HeLa cells. SAA was used at 1 μM and the cells were stimulated for up to 24 hours. The supernatant was collected and secreted IL-8 was measured using ELISA.
In addition to the TLR2-HeLa cell line, a HeLa cell line stably expressing TLR2 and a 5xNF-κB luciferase reporter (pNF-kappaB-Luc, FIG. 13) was generated. This second cell line offers improved consistency between experiments by eliminating the need for transiently transfecting the NF-κB reporter each time an reporter assay is conducted. […] The TNFαc-stimulated reporter activity was used as an independent indicator for comparison. Both cell lines have been and will be used in characterization of SAA-induced functions and in screening assays. […] The TLR2-independent effect in IL-8 secretion was determined in parallel, in mock-transfected HeLa cells lacking the exogenous TLR2 (FIG. 7B).

[2] = test system: NF-κB; assay: Electrophoresis mobility shift assay (EMSA) with BMDM nuclear extracts; assay type: cell-based, mouse; conditions: SAA-stimulated BMDM, after 30 min
Protocol: To investigate the mechanism for SAA-induced G-CSF production, the level of G-CSF transcript in SAA-stimulated BMDM was determined. […] The induction of G-CSF transcript peaked at 4 h after SAA stimulation. Since transcription of the G-CSF gene involves NF-κB binding to the RelA/p65 consensus element in the CK-1 site of the G-CSF promoter (Dunn et al., 1994; Hareng and Hartung, 2002), the role of NF-κB in SAA-stimulated G-CSF expression was determined. […] Using oligonucleotide probe based on the sequence of the CK-1 site (−161 to −152 in the G-CSF promoter), a protein •DNA complex (FIG. 2C) was identified. […] Inclusion of a RelA/p65 antibody blocking peptide in the assay abrogated the immunoprecipitation (FIG. 2D).
EMSA: Nuclear extracts were isolated using the method of Dignam et al (Dignam et al., 1983) with minor modifications. For each sample, 5×10^6 cells were used. Radiolabeling of the NF-κB probe and CK-1 probe, binding reactions, electrophoresis, and autoradiography were conducted as described previously (He et al., 2003).

[3] = test system: TLR2; assay: NF-κB luciferase reporter assay in TLR2-HeLa cells; assay type: cell-based, human; conditions: TLR2-HeLa cells, p<0.01
Protocol: (§1) To determine whether TLR2 is a receptor for SAA, a TLR2-expressing cell line was prepared in HeLa cells, which contain very little endogenous TLR2 transcript (FIG. 6A, upper panel). […] TLR2 is a class I transmembrane protein that contains an extracellular ligand binding domain (ectodomain), a transmembrane domain and a cytoplasmic domain consisting of the Toll/IL-1/receptor/Resistance (TIR) motif. Studies have shown that TLR2 forms heterodimers with TLR1 and TLR6 (Ozinsky et al., 2000), which display different preference for TLR2 ligands (Hoebe et al., 2005; Takeuchi et al., 2002). The C-terminal TIR domain is conserved among TLRs and responsible for TLR signaling (O'Neill and Bowie, 2007; Takeda and Akira, 2004). To assess the relative contributions of TLRs to SAA signaling, TLR1, TLR2, TLR4 and TLR6 were overexpressed in the TLR2-HeLa cells, and their effects on SAA-induced NF-κB luciferase reporter activity were determined. […] In addition, the TIR domain deletion mutants (ΔTIR) of these receptors were expressed, which are negative regulators of TLR signaling.
(§2) Methods for the generation of TLR2-HeLa stable cell line: HeLa cells stably transfected with human TLR2 gene were generated by transfecting HeLa cells with the expression construct pUNO-hTLR2 (InvivoGen, San Diego, Calif.; GenBank accession number for human TLR2 cDNA is NM_003264) and selected with Blasticidin at concentration of 20 μg/ml for 2 weeks. The control HeLa cells were generated at the same time by transfecting with empty pUNO vector. Cells were maintained in DMEM supplemented with 10% heat-inactivated FB S, 2 mM L-glutamine, 100 IU/ml penicillin, and 50 μg/ml streptomycin. Expression of TLR2 was confirmed using an anti-TLR2 antibody (eBioscience) and FTTC-conjugated anti-mouse antibody, on a FACSCalibur flow cytometer (Becton Dickinson). The TLR2-HeLa and control cells were then co-transfected with 5xNF-κB reporter plasmids (pNF-κB-Luc, Stratagene, Cedar Creek, Tex., catalog no. 219077) and empty SFFV vector bearing a neomycin resistant gene. The TLR2-HeLa/NF-κB reporting cells were obtained after selecting with G418 at concentration of […] for 2-3 weeks. Cells (5′10^5/ml) were grown in DMEM supplemented with 10% heat-inactivated FBS, 2 mM L-glutamine, 100 IU/ml penicillin, and […] streptomycin.
(§3) Methods for using HeLa cells in reporter assay: Mock-transfected HeLa and TLR2-HeLa cells were maintained at ˜5×10^5 cells/well in six-well plates, transfected with plasmid expression vectors coding for a 3×κB-directed luciferase reporter, pCMVβ vector DNA (Promega) and/or other expression constructs as indicated. Total DNA concentration was adjusted to 1 μg/sample by addition of empty vector DNA. Transient transfection was performed using LipofectAmine Plus reagent (Invitrogen). […]

[4] = target: T1, TLR2 (Homo sapiens, UniProt O60603); assay: NF-κB luciferase reporter assay in TLR2-HeLa cells; assay type: cell-based
T1 construct: host or cells: HeLa
T1 sequence (O60603 21-784): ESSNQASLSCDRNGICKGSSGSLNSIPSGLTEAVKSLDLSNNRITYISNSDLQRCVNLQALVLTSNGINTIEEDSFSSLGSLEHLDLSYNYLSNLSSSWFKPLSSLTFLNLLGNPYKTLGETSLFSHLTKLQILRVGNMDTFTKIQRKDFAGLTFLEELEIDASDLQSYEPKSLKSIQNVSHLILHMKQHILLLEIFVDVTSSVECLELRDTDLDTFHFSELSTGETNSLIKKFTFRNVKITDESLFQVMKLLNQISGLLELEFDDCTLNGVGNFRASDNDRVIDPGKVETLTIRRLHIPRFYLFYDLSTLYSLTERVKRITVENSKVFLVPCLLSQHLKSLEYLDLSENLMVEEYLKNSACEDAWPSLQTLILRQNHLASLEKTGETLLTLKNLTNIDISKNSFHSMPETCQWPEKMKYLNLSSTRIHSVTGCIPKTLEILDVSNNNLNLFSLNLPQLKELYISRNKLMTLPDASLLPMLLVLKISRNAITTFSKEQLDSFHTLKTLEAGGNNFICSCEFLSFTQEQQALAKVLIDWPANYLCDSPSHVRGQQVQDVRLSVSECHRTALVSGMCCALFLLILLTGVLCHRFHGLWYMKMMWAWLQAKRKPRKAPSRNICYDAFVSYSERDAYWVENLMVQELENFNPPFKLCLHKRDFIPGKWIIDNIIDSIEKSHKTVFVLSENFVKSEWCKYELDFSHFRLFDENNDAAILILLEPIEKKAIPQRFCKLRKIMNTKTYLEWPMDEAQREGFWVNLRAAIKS
T1 sequence (Q15399 25-786 partner): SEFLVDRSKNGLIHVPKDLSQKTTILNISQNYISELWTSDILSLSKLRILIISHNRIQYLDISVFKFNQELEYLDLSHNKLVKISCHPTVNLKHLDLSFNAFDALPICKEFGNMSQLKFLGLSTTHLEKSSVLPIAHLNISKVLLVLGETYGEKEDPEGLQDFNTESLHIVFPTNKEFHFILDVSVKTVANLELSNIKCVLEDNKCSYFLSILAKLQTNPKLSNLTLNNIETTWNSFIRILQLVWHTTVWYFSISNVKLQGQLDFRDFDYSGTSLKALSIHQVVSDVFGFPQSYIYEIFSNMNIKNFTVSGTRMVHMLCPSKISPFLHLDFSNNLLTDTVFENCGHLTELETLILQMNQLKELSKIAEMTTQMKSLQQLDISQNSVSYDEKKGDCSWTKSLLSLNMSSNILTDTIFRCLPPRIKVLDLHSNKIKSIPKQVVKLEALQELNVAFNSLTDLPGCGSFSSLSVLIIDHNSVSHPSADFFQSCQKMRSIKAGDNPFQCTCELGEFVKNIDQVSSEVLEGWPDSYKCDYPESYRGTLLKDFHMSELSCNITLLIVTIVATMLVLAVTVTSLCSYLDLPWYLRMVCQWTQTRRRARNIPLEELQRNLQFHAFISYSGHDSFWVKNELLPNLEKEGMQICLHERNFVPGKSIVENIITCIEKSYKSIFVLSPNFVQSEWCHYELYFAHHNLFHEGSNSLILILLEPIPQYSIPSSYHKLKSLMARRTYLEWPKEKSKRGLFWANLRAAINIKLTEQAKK
Protocol: as §1, §2, §3

B1: SAA: Recombinant human SAA purchased from PeproTech; major acute-phase protein of 104 amino acids (protein, UniProt P0DJI8 19-122, looked up)
Serum amyloid A-1 protein: RSFFSFLGEAFDGARDMWRAYSDMREANYIGSDKYFHARGNYDAAKRGPGGAWAAEVITDARENIQRFFGHGAEDSLADQAANEWGRSGKDPNHFRPAGLPEKY
secretion of IL-8 [1]: time-dependent increase in the secretion of IL-8 | formation of NF-κB•DNA complex [2]: stimulated the formation of NF-κB•DNA complex | SAA-induced NF-κB luciferase activity with ΔTIR mutants of TLR1, TLR2 and TLR6 [3]: significant inhibition | NF-κB luciferase activity ([4]; SAA-stimulated TLR2-HeLa vs mock-transfected HeLa cells, p<0.01): significantly increased NF-κB luciferase activity | SAA-induced NF-κB luciferase activity with exogenous expression of TLR1 ([4]; TLR2-HeLa cells overexpressing TLR1): potentiated SAA-induced NF-κB luciferase activity
